In patent publication US20170065702A1 (CANGENE, published 2017):
Substitutions are numbered along the chain they refer to.

B1: CAN54G2 (antibody, V domains shown)
VH: QVQLQQSGTELVRPGTSVKISCKASGYDFTNFWLGWIKQRPGHGLEWIGDIYPGGDNTYYNEKFKGKVTLTADKSSNTAYMQFSSLTSEDSAVYFCFMILYTLDYWGQGTSVTVSS
VL: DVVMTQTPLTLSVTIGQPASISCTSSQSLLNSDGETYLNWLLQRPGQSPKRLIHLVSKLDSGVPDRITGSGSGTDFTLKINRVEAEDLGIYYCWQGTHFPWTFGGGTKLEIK
B2: CAN40G1 (antibody, V domains shown)
VH: EVQLQQSGPELVKPGASVKISCRTSGYTFTEYTIHWVKQSRGKSLEWIGGINPNHGGTLYNQKFKVKATLTVDKSSSTAYMELRSLTSEDSAVYYCARFTYDYWGQGTTLTVSS
VL: DIVLTQSPASLAVSLGQRASISCKASQSVDHDGDSYMNWYQQKPGQPPKLLIYATSNLESGIPARFSGSGSGTDFTLNIHPVEEEDAATYYCQQSYEVPLTFGAGTKLELK
B3: CAN30G3 (antibody, V domains shown)
VH: QVQLKESGPGLVAPSQSLSITCTVSGFSLTDYGITWIRQPPGKGLEWLGVIWGGGSAYYNLVLKSRLSISKDNSKSQVFLKMNSLQTDDTAMYYCAKHRTLITTAMDYWGQGISVTVSS
VL: DVLMTQTPLSLPVSLGDQASISCRSSQNIVHSNGNTYLEWYLQKSGQSPKLLIYKVSNRFSGVPDRFSGSGSGTDFTLKISRVEAEDLGVYYCFQGSHFPWTFGGGTKLEIK
B4: CAN30G4 (antibody, V domains shown)
VH: EVKLVESGGGLVKSGGSLKLSCAVSGFTFSTYAMSWVRQIPEKRLEWVATISNGGSYIYYSDSVKGRFTISRDNAKNTLYLQMSSLRSEDTAMYYCARHRESYRYDWFAYWGQGTLVTVSA
VL: B3 VL with N33D, S45P, V56F, F99V, W101P, G105A, I111L
B5: CAN30G5 (antibody, V domains shown)
VH: EVQLVESGGGLVQPKGSLKLSCAASGFAFNSYAMHWVCQAPGKGLEWVARIRIKSGNYATSYAGSVTDRFTVSRDDSQNLFYLQMNNLKTEDTAMYYCVREWEGAMDYWGQGTSVTVSS
VL: DIVLTQSPLSLPVSLGDQASISCRSSQSLVHSNGNTYLHWYLQKPGQSPNLLIYKVSNRFSGVPDRFSGSGSGTDFTLKISRVEAEDLGVYFCSQSTHVPWTFGGGTKLEIK
B6: CAN30G1 (antibody, V domains shown)
VH: QIQLVQSGPELKKPGETVKISCKASGYTFTNYGMNWVKQAPGKGLKWMGWINTYTGKPTYVDDFKGRFAFSLETSANTAYLQINNLKNEDTATYFCESGGYDEDYWGQGTTLTVSS
VL: ENVLTQSPAIMSASPGEKVTMTCSASSSVTYMHWYQQKSSTSPKLWIYDTSKLASGVPGRFSGSGSGNSYSLTISSMEAEDVATYYCFQGSGYPYTFGGGTKLEIK

Key:
MARV Musoke GPe[change] = MARV Musoke GPe[change] (Marburg virus, Musoke strain, UniProt P35253 19-636); experiment: cross reactivity with GPeΔmuc, summary table
MARV Angola GPe[change] = MARV Angola GPe[change] (Marburg virus, Angola strain, UniProt Q1PD50 19-636); experiment: cross reactivity with GPeΔmuc, summary table

Binder | binding result (MARV Musoke GPe[change]) | binding result (MARV Angola GPe[change])
B1 | binds | binds
B2 | binds | binds
B3 | binds | binds
B4 | binds | binds
B5 | binds | binds
B6 | binds | binds
